# Test results from IntAct's records for PubMed 35850301.
# B1: Maternal protein pumilio (Drosophila melanogaster (Fruit fly)), P25822 (parent)
# chain: MKFLGGNDDRNGRGGVGVGTDAIVGSRGGVSQDAADAAGAAAAAAVGYVFQQRPSPGGVGVGVGGVGGGVPGVGAVGSTLHEAAAAEYAAHFAQKQQQTRWACGDDGHGIDNPDKWKYNPPMNPANAAPGGPPGNGSNGGPGAIGTIGMGSGLGGGGGGGAGGGNNGGSGTNGGLHHQSMAAAAANMAAMQQAAALAKHNHMISQAAAAVAAQQQHQHPHQQHPQQQQQQQQAQNQGHPHHLMGGGNGLGNGNGLGIQHPGQQQQQQQQQQQQQHPGQYNANLLNHAAALGHMSSYAQSGGSMYDHHGGAMHPGMNGGMPKQQPLGPPGAGGPQDYVYMGGQTTVPMGAAMMPPQNQYMNSSAVAAANRNAAITTSTAKKLWEKSDGKGVSSSTPGGPLHPLQIPGIGDPSSVWKDHTWSTQGENILVPPPSRAYAHGGASDTSNSGNAGILSPRDSTCAKVVEYVFSGSPTNKDSSLSGLEPHLRNLKFDDNDKSRDDKEKANSPFDTNGLKKDDQVTNSNGVVNGIDDDKGFNRTPGSRQPSPAEESQPRPPNLLFPPLPFNHMLMDHGQGMGGGLGGVVGSGNGVGGGSGGGGAGGAYAAHQQMAAQMSQLQPPMMNGVGGGMPMAAQSPMLNHQAAGPNHMESPGNLLQQQNFDVQQLFRSQNPGLAAVATNAAAAAAAAAAATSAASAAAAVGAPPVPNGSLQQSQQQQQQQQQQQQQQQMHMAAASQQFLAAQQQAQNAAYAAQQATSYVINPGQEAAPYMGMIAAAQMPYYGVAPWGMYPGNLIPQQGTQPRRPLTPSQQGAENQPYQVIPAFLDHTGSLLMGGPRTGTPMRLVSPAPVLVPPGATRAGPPPPQGPQLYQPQPQTAQQNLYSQQNGSSVGGLALNTSSLTGRRDSFDRSTSAFSPSTMDYTSSGVAAAANAVNSTVAQAAAAAAAAAAARGKWPGAMSGAASGAYGALGAGNASASPLGAPITPPPSAQSCLLGSRAPGAESRQRQQQQQQLAAVGLPATAAAAQAAVAAAANNMFGSNSSIFSNPLAIPGTAAVAAAAAAAAAANSRQVAATAAAAAAVAAAAGGVGGAPQPGRSRLLEDFRNQRYPNLQLRDLANHIVEFSQDQHGSRFIQQKLERATAAEKQMVFSEILAAAYSLMTDVFGNYVIQKFFEFGTPEQKNTLGMQVKGHVLQLALQMYGCRVIQKALESISPEQQQEIVHELDGHVLKCVKDQNGNHVVQKCIECVDPVALQFIINAFKGQVYSLSTHPYGCRVIQRILEHCTAEQTTPILDELHEHTEQLIQDQYGNYVIQHVLEHGKQEDKSILINSVRGKVLVLSQHKFASNVVEKCVTHATRGERTGLIDEVCTFNDNALHVMMKDQYANYVVQKMIDVSEPTQLKKLMTKIRPHMAALRKYTYGKHINAKLEKYYMKITNPITVGTGAGGVPAASSAAAVSSGATSASVTACTSGSSTTTTSTTNSLASPTICSVQENGSAMVVEPSSPDASESSSSVVSGAVNSSLGPIGPPTNGNVVL
# partner: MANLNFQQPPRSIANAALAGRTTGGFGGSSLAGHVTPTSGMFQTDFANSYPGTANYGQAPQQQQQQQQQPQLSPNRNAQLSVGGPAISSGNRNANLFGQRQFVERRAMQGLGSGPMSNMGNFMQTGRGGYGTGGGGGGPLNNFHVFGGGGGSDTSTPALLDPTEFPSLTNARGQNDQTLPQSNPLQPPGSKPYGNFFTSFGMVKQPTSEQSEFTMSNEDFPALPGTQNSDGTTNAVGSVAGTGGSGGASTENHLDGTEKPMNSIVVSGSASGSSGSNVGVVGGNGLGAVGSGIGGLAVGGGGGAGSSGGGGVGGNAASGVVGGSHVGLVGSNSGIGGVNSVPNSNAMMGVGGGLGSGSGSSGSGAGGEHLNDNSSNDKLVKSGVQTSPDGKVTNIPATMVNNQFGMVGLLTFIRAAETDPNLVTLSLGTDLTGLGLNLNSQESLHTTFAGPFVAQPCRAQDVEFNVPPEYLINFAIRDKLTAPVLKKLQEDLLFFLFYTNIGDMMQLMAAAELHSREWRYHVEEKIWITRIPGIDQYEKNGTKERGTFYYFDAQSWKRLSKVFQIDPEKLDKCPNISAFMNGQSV
# Variants of: B1
# Details: with rga_drome Rga
row,effect of a mutation on the interaction,Variant
1,decreasing interaction strength,F1033A;F1040A
2,with no effect,F1040A
3,with no effect,F1033A

# Variants of: B1
# Details: with rga_drome Rga
# Remark: another data set of the same source
row,effect of a mutation on the interaction,Variant
1,decreasing interaction strength,F1033A;F1040A
